Measured values from patent US20240254196A1 (MEDYTOX, published 2024).

Legend:
human IL-1β [1] = target: T1, human IL-1β (human, UniProt P01584 117-269); assay: ELISA, human IL-1β coated at 30 ng/well, detection with anti-human IgG Fc-HRP, OD 450 nm
T1 construct: Bought protein; also called hIL-1β
Procedure: An analysis of binding of three types of IL-1 specific Fc fusion proteins (rilonacept, IL1T, PET101) to human IL-1β was performed by using an ELISA method. For comparison of binding capacity, human IL-1β antibody canakinumab was used as a control. […] Next day, the plate was washed with Phosphate Buffered Saline with Tween-20 (PBST; TEKNOVA, P1192). All washing procedures in this analysis were performed by using an AquaMax 2000 plate washer (Molecular Devices, 0310-5363). IL1T, PET101, rilonacept, and canakinumab were diluted in PBST containing 1% (w/v) skim milk to an appropriate concentration and treated in each well, binding was induced at room temperature for 1 hour, and plate was washed 3 times. Thereafter, peroxidase-bound anti-human IgG Fc goat antibodies (Invitrogen 31413) were diluted (1:10,000) in PBST containing 1% (w/v) skim milk to induce binding, and washed 3 times with PBST, and then color reaction was induced by treating 3,3′,5,5′-tetramethylbenzidine (TMB) substrate solution (Thermo Fisher Scientific, 34028) in the dark at room temperature. Thereafter, the reaction was terminated by treatment with 1N of sulfuric acid (DUKSAN, 255), and absorbance was measured at 450 nm by using a SpctraMax i3 multimode plate reader (Molecular Devices, 10192-220).

human IL-1β [2] = target: T1, human IL-1β; assay: SPR, Biacore T200; binder captured by anti-human Fc, cytokine injected; 1:1 Langmuir
Procedure: (§1) In order to analyze binding capacity of PET101 to IL-1α and IL-1β more quantitatively, surface plasmon resonance analysis was performed by using Biacore T200 (GE healthcare). A Series S CM5 Sensor Chip (GE healthcare, BR100530) was used to measure the binding constant, and the anti-human Fc antibodies included in the Human Antibody Capture Kit (GE healthcare, BR100839) were immobilized to the sensor chip according to the manufacturer's manual by using an amine coupling kit (GE healthcare, BR100050). Flow cell 1 of the CM5 sensor, to which anti-human Fc antibodies were immobilized, was used as a blank space, and in Flow cells 2, 3, and 4, 100 nM of PET101 (18 μg/ml), 100 nM of rilonacept (25 μg/ml), and 100 nM of canakinumab (15 μg/ml) were respectively loaded for 1 minute at a flow rate of 10 μl/min. After preparation of all the flow cells, 0.25 nM, 0.5 nM, 1 nM, 2 nM, 4 nM, and 8 nM of human IL-1α (R&D systems, 200-LA), human IL-1β (R&D systems, 201-LB), and mouse IL-1α (R&D systems, 400-ML), mouse IL-1β (R&D systems, 401-ML), and rhesus monkey (Rhesus macaque) IL-1β (R&D systems, 1318-RL) antigens were injected at a flow rate of 30 μl/min, to carry out a binding reaction for 4 minutes, subsequently, only 1×HBS-EP+ buffer (GE healthcare, BR100669) was injected at a flow rate of 30 μl/min to perform a dissociation reaction for 10 minutes. Affinity was calculated by performing normalization and subtraction in each acquired sensorgram comparing with the blank cell. The BIAevaluation software (GE healthcare) was used for affinity calculation, and the association rate constant and dissociation rate constant were calculated through the 1:1 Langmuir model analysis. An equilibrium dissociation constant (KD) is a value obtained by dividing the dissociation rate constant (Kd) by the association rate constant (Kₐ).

[3] = target: T2, rhesus monkey (Rhesus macaque) IL-1β (rhesus monkey (Rhesus macaque), UniProt P48090 117-269); assay: as above
T2 construct: Bought protein; also called Monkey IL-1β; monkey IL-1β
Procedure: as §1

EC50 (human IL-1β [1]): 0.0882 nM
Kd (human IL-1β [2]): 0.0684 nM
koff (human IL-1β [2]): 5.21e-05 s⁻¹
kon (human IL-1β [2]): 762000 M⁻¹ s⁻¹
Kd [3]: 2850 nM
koff [3]: 0.0181 s⁻¹
kon [3]: 6350 M⁻¹ s⁻¹
B1: canakinumab (antibody)
chain 1: not shown
chain 2: EIVLTQSPDFQSVTPKEKVTITCRASQSIGSSLHWYQQKPDQSPKLLIKYASQSFSGVPSRFSGSGSGTDFTLTINSLEAEDAAAYYCHQSSSLPFTFGPGTKVDIKRTVAAPSVFIFPPSDEQLKSGTASVVCLLNNFYPREAKVQWKVDNALQSGNSQESVTEQDSKDSTYSLSSTLTLSKADYEKHKVYACEVTHQGLSSPVTKSFNRGEC
